Patent US20240270874A1
Blank lines part the entries; values can stand above or below the substance they belong to.

What was measured:
Experiment in all cases: cell-based or functional assay
[1] = target: human KLB & human FGFR3c on L6 cells (human) (UniProt Q86Z14)
[2] = target: human KLB & human FGFR4 on L6 cells (human) (UniProt Q86Z14)
[3] = target: human FGFR1c on cells (human) (UniProt P11362)
[4] = target: human KLB&FGFR1c complex on cells (human) (UniProt Q86Z14)
Sequence of human KLB&FGFR1c complex on cells (human) (Q86Z14 whole entry, chain 1 of 2): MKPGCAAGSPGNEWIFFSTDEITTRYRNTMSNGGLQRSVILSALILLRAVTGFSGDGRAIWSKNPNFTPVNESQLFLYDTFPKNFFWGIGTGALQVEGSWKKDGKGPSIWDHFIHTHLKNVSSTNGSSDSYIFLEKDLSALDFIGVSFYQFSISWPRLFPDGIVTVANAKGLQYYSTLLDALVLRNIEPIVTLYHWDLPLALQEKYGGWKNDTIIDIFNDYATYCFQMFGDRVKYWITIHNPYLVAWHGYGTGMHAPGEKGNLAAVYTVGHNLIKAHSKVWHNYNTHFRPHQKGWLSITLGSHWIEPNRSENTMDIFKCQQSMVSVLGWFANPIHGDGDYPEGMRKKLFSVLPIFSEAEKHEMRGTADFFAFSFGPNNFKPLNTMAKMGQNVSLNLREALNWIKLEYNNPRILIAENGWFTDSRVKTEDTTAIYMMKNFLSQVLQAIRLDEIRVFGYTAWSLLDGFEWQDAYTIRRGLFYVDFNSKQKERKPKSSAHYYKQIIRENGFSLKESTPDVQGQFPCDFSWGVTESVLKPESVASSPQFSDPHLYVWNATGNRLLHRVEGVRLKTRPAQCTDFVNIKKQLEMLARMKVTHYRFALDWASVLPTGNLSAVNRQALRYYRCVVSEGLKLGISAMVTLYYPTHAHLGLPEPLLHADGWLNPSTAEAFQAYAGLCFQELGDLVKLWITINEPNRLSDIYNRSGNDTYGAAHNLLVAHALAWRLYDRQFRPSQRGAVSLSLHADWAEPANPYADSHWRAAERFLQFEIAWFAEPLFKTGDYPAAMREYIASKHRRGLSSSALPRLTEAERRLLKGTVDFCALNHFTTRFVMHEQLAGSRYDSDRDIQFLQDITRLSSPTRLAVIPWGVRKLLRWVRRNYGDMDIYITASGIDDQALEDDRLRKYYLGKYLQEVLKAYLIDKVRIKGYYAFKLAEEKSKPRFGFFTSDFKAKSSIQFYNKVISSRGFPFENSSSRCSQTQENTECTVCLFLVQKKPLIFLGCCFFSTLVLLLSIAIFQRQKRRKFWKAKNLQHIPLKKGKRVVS
Sequence of human KLB&FGFR1c complex on cells (human) (P11362 22-822, chain 2 of 2, further chain): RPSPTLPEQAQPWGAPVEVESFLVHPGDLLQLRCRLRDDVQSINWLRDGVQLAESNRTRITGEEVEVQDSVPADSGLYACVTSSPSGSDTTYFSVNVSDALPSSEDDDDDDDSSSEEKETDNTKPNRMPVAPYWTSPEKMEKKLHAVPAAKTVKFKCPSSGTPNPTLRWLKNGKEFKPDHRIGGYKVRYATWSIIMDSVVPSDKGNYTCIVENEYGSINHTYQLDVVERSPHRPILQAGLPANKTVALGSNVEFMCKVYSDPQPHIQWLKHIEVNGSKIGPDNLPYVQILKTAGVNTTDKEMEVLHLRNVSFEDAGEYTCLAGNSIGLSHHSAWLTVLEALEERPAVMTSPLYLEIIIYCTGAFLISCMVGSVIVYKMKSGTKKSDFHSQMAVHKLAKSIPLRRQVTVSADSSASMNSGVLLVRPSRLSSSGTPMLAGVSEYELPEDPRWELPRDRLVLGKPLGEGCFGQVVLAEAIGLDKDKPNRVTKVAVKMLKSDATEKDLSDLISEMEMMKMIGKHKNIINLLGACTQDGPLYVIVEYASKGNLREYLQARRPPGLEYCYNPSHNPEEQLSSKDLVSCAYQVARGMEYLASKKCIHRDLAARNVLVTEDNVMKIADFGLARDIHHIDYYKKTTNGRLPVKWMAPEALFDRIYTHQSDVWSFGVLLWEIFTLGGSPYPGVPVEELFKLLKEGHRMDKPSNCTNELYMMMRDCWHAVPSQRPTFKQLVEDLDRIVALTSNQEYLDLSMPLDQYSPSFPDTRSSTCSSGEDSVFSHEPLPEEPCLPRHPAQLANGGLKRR

Sequence of human FGFR1c on cells (human) (P11362 22-822): as the sequence (P11362 22-822, chain 2 of 2, further chain) above
Sequence of human KLB & human FGFR3c on L6 cells (human) (Q86Z14 whole entry, chain 1 of 2): as the sequence (Q86Z14 whole entry, chain 1 of 2) above
Sequence of human KLB & human FGFR3c on L6 cells (human) (P22607 23-806, chain 2 of 2, further chain): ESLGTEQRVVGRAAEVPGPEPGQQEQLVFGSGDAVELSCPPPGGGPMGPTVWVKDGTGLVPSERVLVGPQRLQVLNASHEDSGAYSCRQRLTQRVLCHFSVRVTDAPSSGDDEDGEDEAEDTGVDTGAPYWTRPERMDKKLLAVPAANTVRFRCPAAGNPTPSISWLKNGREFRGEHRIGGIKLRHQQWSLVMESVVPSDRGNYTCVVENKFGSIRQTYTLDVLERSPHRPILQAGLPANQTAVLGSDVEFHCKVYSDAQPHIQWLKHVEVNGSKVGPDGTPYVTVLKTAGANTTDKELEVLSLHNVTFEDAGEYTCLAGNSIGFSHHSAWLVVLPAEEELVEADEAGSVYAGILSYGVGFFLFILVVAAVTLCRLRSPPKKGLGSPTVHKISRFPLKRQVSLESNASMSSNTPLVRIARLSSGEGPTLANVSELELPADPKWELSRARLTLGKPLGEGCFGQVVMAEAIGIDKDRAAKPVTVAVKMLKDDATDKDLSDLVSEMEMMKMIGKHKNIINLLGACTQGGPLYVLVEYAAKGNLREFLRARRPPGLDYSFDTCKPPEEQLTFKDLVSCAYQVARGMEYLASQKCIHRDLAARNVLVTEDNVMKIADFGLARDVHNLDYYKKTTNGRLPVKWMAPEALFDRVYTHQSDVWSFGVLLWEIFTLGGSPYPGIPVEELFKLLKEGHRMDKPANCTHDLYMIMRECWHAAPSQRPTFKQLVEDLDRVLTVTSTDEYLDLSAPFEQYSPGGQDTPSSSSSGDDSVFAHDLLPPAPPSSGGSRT
Sequence of human KLB & human FGFR4 on L6 cells (human) (Q86Z14 whole entry, chain 1 of 2): as the sequence (Q86Z14 whole entry, chain 1 of 2) above
Sequence of human KLB & human FGFR4 on L6 cells (human) (P22455 22-802, chain 2 of 2, further chain): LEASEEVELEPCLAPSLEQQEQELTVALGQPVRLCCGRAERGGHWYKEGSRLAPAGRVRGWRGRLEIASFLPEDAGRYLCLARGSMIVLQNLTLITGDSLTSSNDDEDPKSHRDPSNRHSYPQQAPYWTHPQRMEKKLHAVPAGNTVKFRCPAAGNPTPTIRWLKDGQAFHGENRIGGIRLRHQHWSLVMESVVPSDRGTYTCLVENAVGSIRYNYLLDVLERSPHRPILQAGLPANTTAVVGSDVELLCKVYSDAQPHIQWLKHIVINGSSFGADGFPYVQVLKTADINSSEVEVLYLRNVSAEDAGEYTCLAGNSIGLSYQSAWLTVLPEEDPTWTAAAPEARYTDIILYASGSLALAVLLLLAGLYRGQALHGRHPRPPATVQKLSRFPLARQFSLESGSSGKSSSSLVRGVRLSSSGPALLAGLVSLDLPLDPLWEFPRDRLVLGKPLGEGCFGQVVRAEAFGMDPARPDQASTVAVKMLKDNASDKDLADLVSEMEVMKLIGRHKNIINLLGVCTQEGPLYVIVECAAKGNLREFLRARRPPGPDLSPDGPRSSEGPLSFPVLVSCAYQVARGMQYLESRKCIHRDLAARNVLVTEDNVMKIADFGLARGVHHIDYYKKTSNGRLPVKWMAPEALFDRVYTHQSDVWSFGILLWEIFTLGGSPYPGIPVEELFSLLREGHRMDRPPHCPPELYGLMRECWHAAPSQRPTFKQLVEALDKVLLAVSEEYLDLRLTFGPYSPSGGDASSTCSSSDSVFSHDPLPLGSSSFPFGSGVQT

Activation fold, pERK/total ERK in L6-hKLB&hFGFR3c cells [1]: 10.2 fold | Activation fold, pERK/total ERK in L6-hKLB&hFGFR4 cells [2]: 2.11 fold
Substance: AKR001 (ligand)

Activation fold, SRE-Luc2P reporter in HEK293-hFGFR1c cells [3]: 11.6 fold
Substance: FGF2 (Sino Biological, 10014-HNAE) (from UniProt P09038 143-288) (ligand)

Activation fold, GAL4-Elk1 luciferase reporter in CHOK1-hKLB&hFGFR1c cells [4]: 5.62 fold | Activation fold, SRE-Luc2P reporter in HEK293T-hKLB&hFGFR1c cells [4]: 1.65 fold | EC50 (nM), GAL4-Elk1 luciferase reporter in CHOK1-hKLB&hFGFR1c cells [4]: 0.64 nM | EC50 (nM), SRE-Luc2P reporter in HEK293T-hKLB&hFGFR1c cells [4]: 5.06 nM
Substance: MK3655 (antibody)
